Data as given in patent US20250241939A1, “NUCLEIC ACID-BASED DELIVERY SYSTEMS AND USES THEREOF” (Kodikaz Therapeutic Solutions, Inc., priority 2022, published 2025).

What was measured:
[1] = system: plasma cells (CD138+) and non-plasma cells (CD138−) of bone marrow; assay: Cell targeting in bone marrow samples from patients with and without multiple myeloma, flow cytometry; type: cell-based, human
Description: FIG. 10 provides illustrative flow cytometry scatterplots displaying the cell capture of AluSp, MER11, and control transposon sequence in plasma cells (CD138+) and non-plasma cells (CD138−) derived from bone marrow of multiple myeloma patients.
Data for plasma cells (CD138+) and non-plasma cells (CD138−) are separately shown.
Cell targeting of the AluSp and MER11C sequences was tested in bone marrow samples derived from patients with and without multiple myeloma.

[2] = system: MM1s (multiple myeloma) cell genome; assay: ctDNA coculture with MM1s cells, whole genome sequencing: genomic insertion sites, transposons at insertion points and SNVs (multiple myeloma); type: cell-based, human; details: TABLE 7, multiple myeloma co-culture
Description: The integration of ctDNAs into the host cell genome was evaluated. ctDNA was extracted from patient plasma, cultured for 24 hours with cells of a matching cancer cell type or non-matching cancer cell type, and whole genome sequencing was performed. The cell lines used were MM1s (multiple myeloma, MM) and MIA (pancreatic cancer, PC).
Single nucleotide variants (SNVs) unique to the ctDNA that were found in the host cell genome under matching coculture conditions were identified.
The sequence data was used to reconstruct genomic contigs for each experimental condition by de novo assembly. […] Coculture contigs carrying a ctDNA insertion were identified using NucDiff analysis. BLAST alignment analysis further validated the gain of ctDNA fragments in coculture conditions and identified the transition points of ctDNA insertion (FIGS. 3A-3C). […] The remaining 20% inserted into a chromosomal location distinct from their site of origin.
Experiments were designed to identify the presence of transposons in ctDNA fragments. To map ctDNA genomic junctions more precisely, a PACBIO probe was ligated to multiple myeloma and pancreatic cancer ctDNA samples to label their 5′ and 3′ ends. Whole-genome sequencing of DNA from cells with ctDNA genomic integration was done using the Illumina platform. De novo assembly was performed on the sequencing output. ctDNA contigs containing PACBIO adaptor were then matched to those contigs containing inserted ctDNA sequences identified in the coculture experiments. Transposable element on ctDNA sequences at the insertion points (<100 nucleotides from transition point between cell and ctDNA) were detected and classified using RepeatMaster.
A search was conducted for transposons that preferentially target cells of matching tumor types. The lists of transposons identified at the ctDNA insertion point in matching and mismatched coculture conditions were compared (e.g., MM ctDNA with MM cells or PC cells). Transposons were selected that were uniquely or preferentially inserted in the matching conditions.
In multiple myeloma, AluSp, MER11, MER11C, AluJb, and L2a, among other subfamilies of retrotransposons were identified at the MM ctDNA insertion sites (FIG. 5B and TABLE 7).
Whole-genome sequencing and Whole exon sequencing: ctDNA was extracted from 10 MM and 10 PC patients. DNA from CD138 (+) cells and from cell lines used in in vitro experiments (MM1s and MIA) was extracted using Blood & Cell Culture DNA Mini Kit (Quiagen, MD). DNA from […] paraffin embedded pancreatic tumors was obtained using QIAamp DNA FFPE Tissue Kit Print (Qiagen, MD).
After extraction, ctDNA was ligated to the PACBIO adaptor ([…]) using the ABM DNA Library Prep Kit for Illumina Sequencing (Applied Biological Materials Inc. Canada). PACBio-labeled ctDNA and regular ctDNA were subjected to standard methods for library preparation and sequencing using Illumina and Agilent protocols, respectively. Applied Biological Materials Inc. prepared the libraries and performed whole-exon and -genome sequencing. The average target coverage was 50×.
Identification of transposable elements and its nucleotide variants: To determine the locations of transposable-like regions in contigs, sequences were analyzed and transposable elements (TEs) were identified and classified using RepeatMasker version 4.1.0 and the Dfam database (release 3.1) of repetitive DNA families was used as a reference for identifying repeats in ctDNA contig sequences that were part of qualifying structural events. For each repeat sequence identified by RepeatMasker, the overall frequency of the specific repeat (e.g., for AluSp or L1) and their parent class (e.g., SINE) was computed.
Once the TE elements were identified, hit repeats/TE sequences, unique contigs for all samples, and insertion sequence were aligned with MAFFT software version. […]

MM1s and U266 cells = assay: Cell capture of several transposons in two MM cell lines at 4 hours, flow cytometry; type: cell-based, human; details: 4 hours of culture
Description: The variability of cell capture of several transposons was tested in two MM cell lines at 4 hours of culture.

[3] = system: MM cell lines MM1S, JK6L, and RPMI; assay: Uptake of additional MM2 fragments, fluorescent microscopy; type: cell-based; details: Fluorescein 12 dCTP or 5′FAM labelling
Description: FIG. 21 provides microcopy images showing uptake of 5′ fluorescently labelled synthetic DNA fragments derived from a multiple myeloma ctDNA by MM cells (JK6L) or non-MM cells.
Additional fragments were generated to analyze further the sequence to identify a region that contributes to uptake by MM cells (e.g., a recognition sequence). The following sequences were generated with Fluorescein 12 dCTP or 5′FAM labelling:
The fluorescent DNA sequences were incubated with multiple cell lines (e.g., MM cell lines MM1S, JK6L, and RPMI, and non-MM cell lines HT1080, HCT116, and DU145) and uptake was evaluated by fluorescent microscopy. […] Specificity of uptake by MM cells was preserved as shown by a lack of uptake by HT1080 and HCT116 cells (FIG. 21).

B1: CY5-MER11C: synthesized MM retrotransposon MER11C, labelled with CY5 (nucleic acid, listed as Homo sapiens)
DNA: TATCGAAAATTCACCCCCGATATTCACGTAGGTTCTTTTCTATTTTCCCTAAGCGTCGGCAGGTTTGAGAAATAAAGGGACAGAGTACAAAAGAGAGAAATTTTAAAGCTGGGCGTCCGGGGGAGACATCACATGTTGGTAGGTTCCATGATGCCCCACAAGCCGTAAAAACCAGCAAGTTTTTATTAGTGATTTTCAAAAGGGGAGGGAGTGTACGAATAGGTGTGGGTCACAGAGATCACGTGCTTCACAAGGTAATAGAATATCACAAGGCAAATGGAGGCAGGGCGAGATCACAGGACCACAGGACCGGGGTGAAATTAAAATTGCTAATGAAGTTTTGGGCACCATTGTCATTGATAACATCTTATCAGGAGACAGGGTTTGAGAGACAACCGGTCTGACCAAAATTTATTAGGTGGGAATTTCCTCGTCCTAATAAGCCTGGGAGTGCTATGGGAGACTGGGGCTTATTTCATCCCGTAGAGGCAACCATAAAAGACAGGCCCAAGCGGCCATTTAGAGCCTCCCAGGACATTCTCTTTCTCAGGGTGTTCCTTGCTGAGAAAAAGAATTCAGATATTTCTCCATTTGCTTTTGAAAGAAGAGAAATATGGCTCTGTTCCCGGCTCACGGCGCAGATTTAAGGTTATCTCCTTTTCCCTGAACAATTGCTGTTATCCTGTTCTTTTTTCAAGGTGCCCAGATTTCATATTGTTCAAACACACATGCTTACAATTTGTGCAGTTAAGCAATATCACAGGGTCCTGAGGGACATACATCCTCCTCAGCTGACAGGATTAAGAGATTAAAGTAAAGACAGGCATAGGAAATCACAAGGGTATTGATTGGGGAAGTGATAAGTGTCCATGAAATCTTCACAATTTATGTTTAGAGATTGCAGTAAAGACAGGCATAAGAAATTATAAAAGTATTAATTTGGGGAACTAATAAATGTCCATGAAATCTTCACAATCCACGTTCTTCTGCCATGGCTTCAGCCGGTCCCTCCGTTCGGGGTCCCTGACTTCCCGCAACA
modifications: CY5 label
[1]; 14 hours
  signal in plasma cells of MM patients vs non-MM CD138 (−) cells compartment: higher levels of signal
[1]; 14 hours of culture, vs control sequence or PC specific sequence
  CY5 positive plasma cells: more CY5 positive plasma cells
[2]; BLAST alignment orientation
  blast orientation: Plus/Plus
[2]; chromosome with the longest result for BLAST analysis of the full contig
  blast chr: chr14
[2]; distance between insertion and the transposon (0 if they overlap)
  Distance from insertion: 0
[2]; location of the transposon relative to the insertion on the contig
  Location relative to insertion: intersect
MM1s and U266 cells
  cell capture: higher than that of the other transposons, the control sequence, and PC transposons

B2: MM2 (88-168): fluorescently labelled fragment of MM2 (nucleic acid, listed as Homo sapiens)
DNA: CCAGGATGGAGTGCAAGGGATCTTGGCTCACCACAGCCTCCGCCTCTTGGGTTCAAGTGATTCTTCTGCCTCAGCCTCCC
modifications: DNA, all phosphodiester, methylation of C not given here; fluorescein label via fluorescein-12-dCTP or 5' FAM primer
[3]
  uptake by MM cells: sufficient for uptake
